The text below walks through data of PMC5691136 (2017).

The target of the assay is PS372424 (CXCR3 agonist).

B1: CXCR3-A expressed from pEGFPN2 in HEK-293 cells (HEK-CXCR3-A) (receptor)
chain: MVLEVSDHQVLNDAEVAALLENFSSSYDYGENESDSCCTSPPCPQDFSLNFDRAFLPALYSLLFLLGLLGNGAVAAVLLSRRTALSSTDTFLLHLAVADTLLVLTLPLWAVDAAVQWVFGSGLCKVAGALFNINFYAGALLLACISFDRYLNIVHATQLYRRGPPARVTLTCLAVWGLCLLFALPDFIFLSAHHDERLNATHCQYNFPQVGRTALRVLQLVAGFLLPLLVMAYCYAHILAVLLVSRGQRRLRAMRLVVVVVVAFALCWTPYHLVVLVDILMDLGALARNCGRESRVDVAKSVTSGLGYMHCCLNPLLYAFVGVKFRERMWMLLLRLGCPNQRGLQRQPSSSRRDSSWSETSEASYSGL
Regarding B1, the Kd – broadly, the free concentration of one partner at which half of the binding sites on the other are occupied at equilibrium, for simple one-to-one binding – is 40 nM.
